These results are taken from article PMC7113836.

In the experiment the target is HBcS-NadA-CFHbp (Hepatitis B Virus | Neisseria meningitidis strain MC58) (UniProt Q9JXV4). The experiment in a line: cryo-EM structure; single particle cryoelectron microscopy of purified HBcS-NadA-CFHbp VLPs; 3.4 Å map; HBc T = 4 crystal structure fitted and refined; method details in Supplementary Materials.

By stoichiometry N is commonly meant the number of molecules, sites or subunits per partner or assembly. The substance “HBcS-NadA-CFHbp (from UniProt Q9JXV4 157-274)” displayed a stoichiometry N of 240 copies.
